Data on 1 protein can be found in paper PMC4321536, “Chloroplast-encoded serotonin N-acetyltransferase in the red alga Pyropia yezoensis: gene transition to the nucleus from chloroplasts” (Journal of Experimental Botany, 2014).

Substrate in the series: NCCc1c[nH]c2ccc(O)cc12
The series is described as follows: HPLC-fluorescence detection of N-acetylserotonin; Lineweaver-Burk plot. Format: biochemical, Pyropia yezoensis. To be noted: acetyl-CoA co-substrate (0.5 mM in standard assay), 100 mM potassium phosphate pH 8.8, 55 °C.

B1: PySNAT (Pyropia yezoensis; I2V) (protein)
chain: MVFWKNFFQNSNINASSEKNFKKLIVLDKTCDKIEFKDIYLSSNKNINLYELEQLCDSVGWVKRPLKKVKIALKNSSIIISLIQKKDANSKLVGFARATSDNGFNATIWDVVIHPDFQGLGLGKVVIHQLIQQLRQAEISTITLFAEPDVVSFYKKLGFIKDPDGVKGMFWYPR
notes: full-length chloroplast-encoded protein, 174 aa, calculated 20099 Da, C-terminal His tag kept (pET28b NcoI/XhoI), E. coli BL21(DE3), Ni-NTA; no transit peptide; I2V read from the printed NcoI forward primer (ATG GTC for native ATG ATC)
Turning to B1, the Km – broadly, the concentration of substrate that gives half-maximal velocity – turned out to be 467 µM.
